From US20160263155A1, “T CELL RECEPTORS DIRECTED AGAINST THE PREFERENTIALLY EXPRESSED ANTIGEN OF MELANOMA AND USES THEREOF” (LEIDEN UNIVERSITY MEDICAL CENTER, priority 2015, published 2016)

Tested on: chimeric Caspase-9 polypeptide
Assay: Caspase mutant classes and basal activity (Table 3)
Type: cell-based, human
Settings: class heading of Table 3; for IC50: ligand IC50

chimeric Caspase-9 polypeptide, sequence (as listed by the source, change not shown): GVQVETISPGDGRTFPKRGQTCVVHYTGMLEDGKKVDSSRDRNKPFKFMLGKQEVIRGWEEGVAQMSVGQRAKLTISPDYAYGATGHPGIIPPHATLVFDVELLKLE

B1: ^402GCFNF^406ISAQT: Caspase-9 homodimerization domain mutant (SEQ ID NOS 95 and 96) (Casp-10) (protein, UniProt P55211 1-416, looked up, variant G402I C403S F404A N405Q F406T)
chain: MDEADRRLLRRCRLRLVEELQVDQLWDALLSRELFRPHMIEDIQRAGSGSRRDQARQLIIDLETRGSQALPLFISCLEDTGQDMLASFLRTNRQAAKLSKPTLENLTPVVLRPEIRKPEVLRPETPRPVDIGSGGFGDVGALESLRGNADLAYILSMEPCGHCLIINNVNFCRESGLRTRTGSNIDCEKLRRRFSSLHFMVEVKGDLTAKKMVLALLELAQQDHGALDCCVVVILSHGCQASHLQFPGAVYGTDGCPVSVEKIVNIFNGTSCPSLGGKPKLFFIQACGGEQKDHGFEVASTSPEDESPGSNPEPDATPFQEGLRTFDQLDAISSLPTPSDIFVSYSTFPGFVSWRDPKSGSWYVETLDDIFEQWAHSEDLQSLLLRVANAVSVKGIYKQMPISAQTLRKKLFFKTS
With B1 the “Basal Activity” value was “Decreased” and the IC50 was “higher IC50”.

B2: N405Q (protein)
chain: GFGDVGALESLRGNADLAYILSMEPCGHCLIINNVNFCRESGLRTRTGSNIDCEKLRRRFSSLHFMVEVKGDLTAKKMVLALLELAQQDHGALDCCVVVILSHGCQASHLQFPGAVYGTDGCPVSVEKIVNIFNGTSCPSLGGKPKLFFIQACGGEQKDHGFEVASTSPEDESPGSNPEPDATPFQEGLRTFDQLDAISSLPTPSDIFVSYSTFPGFVSWRDPKSGSWYVETLDDIFEQWAHSEDLQSLLLRVANAVSVKGIYKQMPGCFQFLRKKLFFKTS
B2 was tested, and the “Basal Activity” value was “Decreased” and the IC50 was “higher IC50”.

B3: D330A-S144D (protein)
chain: GFGDVGALEDLRGNADLAYILSMEPCGHCLIINNVNFCRESGLRTRTGSNIDCEKLRRRFSSLHFMVEVKGDLTAKKMVLALLELAQQDHGALDCCVVVILSHGCQASHLQFPGAVYGTDGCPVSVEKIVNIFNGTSCPSLGGKPKLFFIQACGGEQKDHGFEVASTSPEDESPGSNPEPDATPFQEGLRTFDQLAAISSLPTPSDIFVSYSTFPGFVSWRDPKSGSWYVETLDDIFEQWAHSEDLQSLLLRVANAVSVKGIYKQMPGCFNFLRKKLFFKTS
B3 was tested, and the “Basal Activity” value was “Decreased” and the IC50 was “higher IC50”.

B4: D330G (protein)
chain: GFGDVGALESLRGNADLAYILSMEPCGHCLIINNVNFCRESGLRTRTGSNIDCEKLRRRFSSLHFMVEVKGDLTAKKMVLALLELAQQDHGALDCCVVVILSHGCQASHLQFPGAVYGTDGCPVSVEKIVNIFNGTSCPSLGGKPKLFFIQACGGEQKDHGFEVASTSPEDESPGSNPEPDATPFQEGLRTFDQLGAISSLPTPSDIFVSYSTFPGFVSWRDPKSGSWYVETLDDIFEQWAHSEDLQSLLLRVANAVSVKGIYKQMPGCFNFLRKKLFFKTS
For B4, the “Basal Activity” value was “Decreased” and the IC50 was “higher IC50”.

B5: D330A-N405Q (protein)
chain: GFGDVGALESLRGNADLAYILSMEPCGHCLIINNVNFCRESGLRTRTGSNIDCEKLRRRFSSLHFMVEVKGDLTAKKMVLALLELAQQDHGALDCCVVVILSHGCQASHLQFPGAVYGTDGCPVSVEKIVNIFNGTSCPSLGGKPKLFFIQACGGEQKDHGFEVASTSPEDESPGSNPEPDATPFQEGLRTFDQLAAISSLPTPSDIFVSYSTFPGFVSWRDPKSGSWYVETLDDIFEQWAHSEDLQSLLLRVANAVSVKGIYKQMPGCFQFLRKKLFFKTS
B5 was tested, and the “Basal Activity” value was “Decreased” and the IC50 was “higher IC50”.

B6: D330A-S183A (protein)
chain: GFGDVGALESLRGNADLAYILSMEPCGHCLIINNVNFCRESGLRTRTGANIDCEKLRRRFSSLHFMVEVKGDLTAKKMVLALLELAQQDHGALDCCVVVILSHGCQASHLQFPGAVYGTDGCPVSVEKIVNIFNGTSCPSLGGKPKLFFIQACGGEQKDHGFEVASTSPEDESPGSNPEPDATPFQEGLRTFDQLAAISSLPTPSDIFVSYSTFPGFVSWRDPKSGSWYVETLDDIFEQWAHSEDLQSLLLRVANAVSVKGIYKQMPGCFNFLRKKLFFKTS
B6 was tested, and the “Basal Activity” value was “Decreased” and the IC50 was “higher IC50”.

B7: S195A (protein)
chain: GFGDVGALESLRGNADLAYILSMEPCGHCLIINNVNFCRESGLRTRTGSNIDCEKLRRRFASLHFMVEVKGDLTAKKMVLALLELAQQDHGALDCCVVVILSHGCQASHLQFPGAVYGTDGCPVSVEKIVNIFNGTSCPSLGGKPKLFFIQACGGEQKDHGFEVASTSPEDESPGSNPEPDATPFQEGLRTFDQLDAISSLPTPSDIFVSYSTFPGFVSWRDPKSGSWYVETLDDIFEQWAHSEDLQSLLLRVANAVSVKGIYKQMPGCFNFLRKKLFFKTS
In the case of B7, the “Basal Activity” value is reported as “Decreased” and the IC50 is reported as “higher IC50”.

B8: D330S (protein)
chain: GFGDVGALESLRGNADLAYILSMEPCGHCLIINNVNFCRESGLRTRTGSNIDCEKLRRRFSSLHFMVEVKGDLTAKKMVLALLELAQQDHGALDCCVVVILSHGCQASHLQFPGAVYGTDGCPVSVEKIVNIFNGTSCPSLGGKPKLFFIQACGGEQKDHGFEVASTSPEDESPGSNPEPDATPFQEGLRTFDQLSAISSLPTPSDIFVSYSTFPGFVSWRDPKSGSWYVETLDDIFEQWAHSEDLQSLLLRVANAVSVKGIYKQMPGCFNFLRKKLFFKTS
For B8, the “Basal Activity” value was “Decreased” and the IC50 was “higher IC50”.

B9: S196A (protein)
chain: GFGDVGALESLRGNADLAYILSMEPCGHCLIINNVNFCRESGLRTRTGSNIDCEKLRRRFSALHFMVEVKGDLTAKKMVLALLELAQQDHGALDCCVVVILSHGCQASHLQFPGAVYGTDGCPVSVEKIVNIFNGTSCPSLGGKPKLFFIQACGGEQKDHGFEVASTSPEDESPGSNPEPDATPFQEGLRTFDQLDAISSLPTPSDIFVSYSTFPGFVSWRDPKSGSWYVETLDDIFEQWAHSEDLQSLLLRVANAVSVKGIYKQMPGCFNFLRKKLFFKTS
For B9, the “Basal Activity” value was “Decreased” and the IC50 was “higher IC50”.

B10: D330N (protein)
chain: GFGDVGALESLRGNADLAYILSMEPCGHCLIINNVNFCRESGLRTRTGSNIDCEKLRRRFSSLHFMVEVKGDLTAKKMVLALLELAQQDHGALDCCVVVILSHGCQASHLQFPGAVYGTDGCPVSVEKIVNIFNGTSCPSLGGKPKLFFIQACGGEQKDHGFEVASTSPEDESPGSNPEPDATPFQEGLRTFDQLNAISSLPTPSDIFVSYSTFPGFVSWRDPKSGSWYVETLDDIFEQWAHSEDLQSLLLRVANAVSVKGIYKQMPGCFNFLRKKLFFKTS
B10 was tested, and the “Basal Activity” value was “Decreased” and the IC50 was “higher IC50”.

B11: D330A-S196A (protein)
chain: GFGDVGALESLRGNADLAYILSMEPCGHCLIINNVNFCRESGLRTRTGSNIDCEKLRRRFSALHFMVEVKGDLTAKKMVLALLELAQQDHGALDCCVVVILSHGCQASHLQFPGAVYGTDGCPVSVEKIVNIFNGTSCPSLGGKPKLFFIQACGGEQKDHGFEVASTSPEDESPGSNPEPDATPFQEGLRTFDQLAAISSLPTPSDIFVSYSTFPGFVSWRDPKSGSWYVETLDDIFEQWAHSEDLQSLLLRVANAVSVKGIYKQMPGCFNFLRKKLFFKTS
With B11 the “Basal Activity” value was “Decreased” and the IC50 was “higher IC50”.

B12: L329E (protein)
chain: GFGDVGALESLRGNADLAYILSMEPCGHCLIINNVNFCRESGLRTRTGSNIDCEKLRRRFSSLHFMVEVKGDLTAKKMVLALLELAQQDHGALDCCVVVILSHGCQASHLQFPGAVYGTDGCPVSVEKIVNIFNGTSCPSLGGKPKLFFIQACGGEQKDHGFEVASTSPEDESPGSNPEPDATPFQEGLRTFDQEDAISSLPTPSDIFVSYSTFPGFVSWRDPKSGSWYVETLDDIFEQWAHSEDLQSLLLRVANAVSVKGIYKQMPGCFNFLRKKLFFKTS
For B12, the “Basal Activity” value was “Decreased” and the IC50 was “higher IC50”.

B13: T317A (protein)
chain: GFGDVGALESLRGNADLAYILSMEPCGHCLIINNVNFCRESGLRTRTGSNIDCEKLRRRFSSLHFMVEVKGDLTAKKMVLALLELAQQDHGALDCCVVVILSHGCQASHLQFPGAVYGTDGCPVSVEKIVNIFNGTSCPSLGGKPKLFFIQACGGEQKDHGFEVASTSPEDESPGSNPEPDAAPFQEGLRTFDQLDAISSLPTPSDIFVSYSTFPGFVSWRDPKSGSWYVETLDDIFEQWAHSEDLQSLLLRVANAVSVKGIYKQMPGCFNFLRKKLFFKTS
In the case of B13, the “Basal Activity” value is reported as “Decreased” and the IC50 is reported as “higher IC50”.

B14: D330V (protein)
chain: GFGDVGALESLRGNADLAYILSMEPCGHCLIINNVNFCRESGLRTRTGSNIDCEKLRRRFSSLHFMVEVKGDLTAKKMVLALLELAQQDHGALDCCVVVILSHGCQASHLQFPGAVYGTDGCPVSVEKIVNIFNGTSCPSLGGKPKLFFIQACGGEQKDHGFEVASTSPEDESPGSNPEPDATPFQEGLRTFDQLVAISSLPTPSDIFVSYSTFPGFVSWRDPKSGSWYVETLDDIFEQWAHSEDLQSLLLRVANAVSVKGIYKQMPGCFNFLRKKLFFKTS
B14 was tested, and the “Basal Activity” value was “Decreased” and the IC50 was “higher IC50”.

B15: D330A-S144A (protein)
chain: GFGDVGALEALRGNADLAYILSMEPCGHCLIINNVNFCRESGLRTRTGSNIDCEKLRRRFSSLHFMVEVKGDLTAKKMVLALLELAQQDHGALDCCVVVILSHGCQASHLQFPGAVYGTDGCPVSVEKIVNIFNGTSCPSLGGKPKLFFIQACGGEQKDHGFEVASTSPEDESPGSNPEPDATPFQEGLRTFDQLAAISSLPTPSDIFVSYSTFPGFVSWRDPKSGSWYVETLDDIFEQWAHSEDLQSLLLRVANAVSVKGIYKQMPGCFNFLRKKLFFKTS
B15 was tested, and the “Basal Activity” value was “Decreased” and the IC50 was “higher IC50”.

B16: S183A (protein)
chain: GFGDVGALESLRGNADLAYILSMEPCGHCLIINNVNFCRESGLRTRTGANIDCEKLRRRFSSLHFMVEVKGDLTAKKMVLALLELAQQDHGALDCCVVVILSHGCQASHLQFPGAVYGTDGCPVSVEKIVNIFNGTSCPSLGGKPKLFFIQACGGEQKDHGFEVASTSPEDESPGSNPEPDATPFQEGLRTFDQLDAISSLPTPSDIFVSYSTFPGFVSWRDPKSGSWYVETLDDIFEQWAHSEDLQSLLLRVANAVSVKGIYKQMPGCFNFLRKKLFFKTS
For B16, the “Basal Activity” value was “Decreased” and the IC50 was “higher IC50”.
